In EP2585123B1 (Planton GmbH, dated 2014):
Ends that are not written are not given here.

Molecular target: collagen scaffold (bovine collagen type I) (bovine, UniProt P02453 162-1217; P02465 80-1117)
Assay: cell-based or functional assay

Sequence of collagen scaffold (bovine collagen type I) (P02453 162-1217, chain 1 of 2): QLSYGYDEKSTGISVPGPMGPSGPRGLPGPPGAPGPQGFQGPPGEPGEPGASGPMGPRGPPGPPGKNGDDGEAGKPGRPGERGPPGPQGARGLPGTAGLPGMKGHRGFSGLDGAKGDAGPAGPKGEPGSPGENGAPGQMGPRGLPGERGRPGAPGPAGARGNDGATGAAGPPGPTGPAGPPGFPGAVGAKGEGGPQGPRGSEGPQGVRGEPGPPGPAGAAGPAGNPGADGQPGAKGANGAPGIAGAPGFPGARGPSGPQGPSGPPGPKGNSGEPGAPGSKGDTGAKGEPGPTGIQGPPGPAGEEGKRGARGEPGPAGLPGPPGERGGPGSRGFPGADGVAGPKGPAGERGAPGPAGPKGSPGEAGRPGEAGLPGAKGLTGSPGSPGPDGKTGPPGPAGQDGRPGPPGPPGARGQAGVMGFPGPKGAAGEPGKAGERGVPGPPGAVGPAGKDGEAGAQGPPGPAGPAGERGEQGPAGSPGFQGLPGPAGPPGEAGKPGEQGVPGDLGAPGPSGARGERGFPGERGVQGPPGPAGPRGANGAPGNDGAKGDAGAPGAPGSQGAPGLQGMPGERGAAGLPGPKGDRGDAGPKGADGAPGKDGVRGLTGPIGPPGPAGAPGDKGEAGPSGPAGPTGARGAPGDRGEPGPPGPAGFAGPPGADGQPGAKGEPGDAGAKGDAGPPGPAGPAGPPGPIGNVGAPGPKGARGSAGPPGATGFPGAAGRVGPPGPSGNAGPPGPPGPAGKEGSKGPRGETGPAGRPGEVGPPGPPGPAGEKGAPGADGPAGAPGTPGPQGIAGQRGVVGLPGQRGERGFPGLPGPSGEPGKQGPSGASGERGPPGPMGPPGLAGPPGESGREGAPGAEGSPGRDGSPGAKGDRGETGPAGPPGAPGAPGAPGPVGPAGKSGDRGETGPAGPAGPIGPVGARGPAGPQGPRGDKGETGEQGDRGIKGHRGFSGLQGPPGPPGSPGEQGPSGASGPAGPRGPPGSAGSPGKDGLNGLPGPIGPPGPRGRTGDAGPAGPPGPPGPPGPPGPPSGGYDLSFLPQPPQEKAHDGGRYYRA
Sequence of collagen scaffold (bovine collagen type I) (P02465 80-1117, chain 2 of 2): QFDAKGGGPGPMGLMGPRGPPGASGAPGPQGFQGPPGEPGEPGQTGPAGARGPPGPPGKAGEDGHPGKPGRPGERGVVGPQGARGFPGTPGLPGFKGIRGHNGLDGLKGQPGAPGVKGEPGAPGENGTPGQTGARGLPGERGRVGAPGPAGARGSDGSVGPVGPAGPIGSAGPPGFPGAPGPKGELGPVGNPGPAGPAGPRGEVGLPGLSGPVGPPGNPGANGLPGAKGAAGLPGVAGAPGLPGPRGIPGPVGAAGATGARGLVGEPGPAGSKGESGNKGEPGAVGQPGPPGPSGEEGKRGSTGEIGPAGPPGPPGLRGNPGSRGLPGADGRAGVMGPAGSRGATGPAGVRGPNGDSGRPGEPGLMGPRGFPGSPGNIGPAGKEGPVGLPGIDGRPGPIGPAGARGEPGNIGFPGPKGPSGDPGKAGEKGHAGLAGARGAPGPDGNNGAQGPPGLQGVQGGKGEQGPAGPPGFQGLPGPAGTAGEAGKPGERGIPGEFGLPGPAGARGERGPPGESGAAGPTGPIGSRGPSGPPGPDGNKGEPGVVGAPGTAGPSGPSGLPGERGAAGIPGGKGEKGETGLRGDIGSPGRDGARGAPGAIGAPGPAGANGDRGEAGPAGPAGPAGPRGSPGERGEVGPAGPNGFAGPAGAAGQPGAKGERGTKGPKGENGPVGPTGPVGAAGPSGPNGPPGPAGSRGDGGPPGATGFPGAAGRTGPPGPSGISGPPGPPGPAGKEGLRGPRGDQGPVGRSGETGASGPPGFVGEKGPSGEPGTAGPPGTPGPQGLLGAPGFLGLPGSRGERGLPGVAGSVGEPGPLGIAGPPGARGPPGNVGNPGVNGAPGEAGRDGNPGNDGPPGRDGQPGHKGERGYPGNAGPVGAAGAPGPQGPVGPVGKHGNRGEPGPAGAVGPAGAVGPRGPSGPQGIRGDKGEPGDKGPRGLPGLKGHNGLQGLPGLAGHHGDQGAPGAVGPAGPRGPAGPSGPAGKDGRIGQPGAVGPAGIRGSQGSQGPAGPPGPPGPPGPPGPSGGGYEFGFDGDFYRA

hBD2 released by the collagen scaffold (agar diffusion assay, zone of inhibition, 10 µg hβD2): 40%
hBD2 retarded by the collagen scaffold (agar diffusion assay, zone of inhibition, 10 µg hβD2): 60%
Binder: GIGDPVTCLKSGAICHPVFCPRRYKQIGTCGLPGTKCCKKP (ends and bridges not checked; cysteine pairing not given here) [human β-defensin-2]
killing of the bacteria, collagen scaffold treated with 5 µg HAS, 4 µg hβD2, microdilution assay: 100%
killing rate, collagen scaffold treated with 5 µg BSA, 4 µg hβD2, microdilution assay: 98%
killing rate, collagen scaffold without gelatine (unblocked), 4 µg hβD2, microdilution assay: 86%
killing, collagen scaffold pre-treated with 10 µl of a 0.1% gelatine solution, 4 µg hβD2, microdilution assay: 94%
